Literature values, collected in PMC9558565.

Target: p53p (Homo sapiens) (UniProt P04637)
Sequence (P04637 whole entry): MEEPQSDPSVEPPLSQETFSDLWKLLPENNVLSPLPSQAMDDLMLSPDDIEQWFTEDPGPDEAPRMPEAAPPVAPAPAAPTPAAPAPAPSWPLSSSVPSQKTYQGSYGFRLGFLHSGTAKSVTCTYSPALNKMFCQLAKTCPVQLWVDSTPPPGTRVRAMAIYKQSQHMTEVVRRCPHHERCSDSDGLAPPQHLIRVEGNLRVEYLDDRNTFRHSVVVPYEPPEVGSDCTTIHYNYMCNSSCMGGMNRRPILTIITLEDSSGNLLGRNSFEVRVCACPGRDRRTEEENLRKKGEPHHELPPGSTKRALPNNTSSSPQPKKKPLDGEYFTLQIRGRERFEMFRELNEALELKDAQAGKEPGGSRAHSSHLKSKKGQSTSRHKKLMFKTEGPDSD

Sequence of MDM2 (Q00987 whole entry): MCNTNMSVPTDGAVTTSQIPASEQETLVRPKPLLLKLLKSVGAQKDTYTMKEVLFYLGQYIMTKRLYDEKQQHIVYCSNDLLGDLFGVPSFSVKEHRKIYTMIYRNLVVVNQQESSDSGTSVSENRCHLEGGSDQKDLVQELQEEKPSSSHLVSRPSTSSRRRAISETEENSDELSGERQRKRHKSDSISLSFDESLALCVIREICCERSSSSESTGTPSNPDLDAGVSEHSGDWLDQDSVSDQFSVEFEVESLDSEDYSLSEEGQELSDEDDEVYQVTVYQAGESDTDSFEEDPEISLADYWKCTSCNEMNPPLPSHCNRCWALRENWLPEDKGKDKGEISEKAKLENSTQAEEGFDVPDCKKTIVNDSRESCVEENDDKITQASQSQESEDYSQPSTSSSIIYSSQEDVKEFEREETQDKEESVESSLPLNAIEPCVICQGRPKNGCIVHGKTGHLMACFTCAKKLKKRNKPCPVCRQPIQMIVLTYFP

Kd: 46 nM
Substance: MDM2 (from UniProt Q00987)
